Source: the domain aggregation screens of Martell et al. (2025)

Assay: soluble fraction after stress (log2 fold change); higher = more stays soluble; pooled small domains, quantitative proteomics
Conditions: stress: 50 degC
Summary of the method: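 The measure of aggregation propensity here is the base-two logarithm of the fold change in the soluble amount of each protein after stress. A higher value means more of that protein stays in solution. Stress was applied at 50°C to pooled libraries of small protein domains, read out by high-throughput quantitative proteomics.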

First: HMNILKAPMPGLILDVIVKESDLVKKGDPVIILEAMKMENILSSPVDGIVKEIKVNPQQTVEKNNTLIKFE
Second: HMNDLKEDTITVQSVEYIDSDDGTMVYIKDTNHQVYKQAFKEDESLIRISAGDVLHVKYQPMDNEIHLL
The “soluble fraction (log2)” value of the first is higher: -0.0546 for the first, -0.364 for the second.

Compared with “HMGYNDQEVKSNLITLLSTSKTGLSGVEISAQLGINRVTMTKFLNVFAAEGIIKQKNIGNLNLWLVEEGTE”, “HMSAPAKKPKIKVDLSKVHAGTIVRHKGYGLGQVKGIDGAIIVVTFDGVDKKFQFPGGFENGFLFLTED” is higher in “soluble fraction (log2)” value: -1.58 for the first, -0.0311 for the second.

First: HMNSFGWESFVGEKGVTDTDLRPSGWIVIKDKRLFALTEGTFIEKGVSVEILSVEGNRIVVREIS
Second: HMSSIVLTARSGRAALAYRVKSIGVDLSKDQLDLVYKTFLGFADKKKEIIDTDIPQILKASGI
The “soluble fraction (log2)” value of the first is higher: -0.249 for the first, -1.92 for the second.

First: HMTTLTPIGKMKGEIDGDFEAFYLAVDKDGQVYLNRDPDYSENRYEKSRGWELVTREQLAVYEKELHFIP
Second: HMDDVGERIRKIREEKNLSLDEISKMTGFDVEFLAKIENKERQPQLGTVIKLSKALDSAFGRL
The “soluble fraction (log2)” value of the first is lower: -0.406 for the first, 0.221 for the second.

Going from “HMAKITERVMGSAALRDYDPNYLPDEVLKALDGYPPFDGYVYKDGILYARVKIGDTFFIIPPI” to “HMHKAVVGPPNARKLAVTYGFKRWPALVFFRDGKYLGAVDGLRLWADLVREADEIMHSEPHYP”, the “soluble fraction (log2)” value rises from -2.27 to -0.166.

Compared with “HMNGGPHYLRDVRTSLGLSQADLAKAVGTSANMIHYLESGERALTLKWIRRISEALNVSPMRLIN”, “HMGIFDIIQEINRQGVTVLLIEQNANMALKIADVGYVLETGRISLTGSGRELLANEAVKKAYL” is higher in “soluble fraction (log2)” value: -1.6 for the first, -0.0514 for the second.

Going from “HMGRFAETVEHIVAAQLARRQGIPTMEQFASFFNVSRATFQRRLGEEGETLEQIKQRVRLRLALELLHP” to “HMLSDLTPGDLVVHATHGIGRFLGIRKLELEGMTKDYITIQYRGNENLYVPVTQMDLVSRYI”, the “soluble fraction (log2)” value rises from -2.86 to -0.292.

“HMANPMFAEIKKVQKQLNEMGYQAGPADGLWGNKTENAVKLLLSDNNLKWDGTFDQNEIKIIEEIFLSND” and “HMSETLESYTTRLKQLEEIADSFQGVDKTFAIQAGREIRVMVVPEQISDDDMILLARDISNQIEENLDY” are within 0.2 log units of each other in “soluble fraction (log2)” value: -0.256 for the first, -0.122 for the second.

First: HMESKKKTYTVKSGDTLVSILKREGVPQELIFKDYLGLFLELNPQISDINKLRVGQEIVLPVPG
Second: HMNKDEFLNELKSYLSILEDEEQADILEEYTQHIDMKISTGLSEAEAIRDFGNVSELAAQILEAY
The “soluble fraction (log2)” value of the first is higher: 0.0119 for the first, -0.222 for the second.

“HMKNSMANVQARREKILSAVDQSEPVAVEGLAQRFNVSITTLRRDLKALSDMGQVKWHHGLVERT” and “HMPKDMAKRASILTAASKLFVQHGYGGVSMDQIAAEAGVSKLTVYSHYGDKDSLFAAAVQAH” are within 0.2 log units of each other in “soluble fraction (log2)” value: -0.173 for the first, -0.328 for the second.

Compared with “HMVDYIGRRGVMLSTVSEEKMGNAEVVIDGNSYNIYVKSLDGSTIAYHQEILIINKSKDNNYFLVQIY”, “HMKEYPEVITTSRLNVRTGPGTGYQRLGTLDQNLRVLVLTRQQGWAQIRGMLNGETVIGWVNDYYLQAID” is higher in “soluble fraction (log2)” value: -2.63 for the first, -0.319 for the second.

Compared with “HMHTADDFKQLAKQTSNGQLRTRYLALYLFKNGETRTQIATYLGVARGSVNTWVSNYLAHGLEGLQSKP”, “HMKTFSFEILADTVKKQRKAKGMTQAELSEATGINRSMIGQMENMTFKPSIEQLEALSQALDFNVIDLYTE” is higher in “soluble fraction (log2)” value: -2.65 for the first, -0.196 for the second.

“HMNEDTEDIKNINSLVNKLTENNFDIIRDSIVKLINKEHLIPYIIETIIEKSILHHRYVHLYVSILKE” and “HMAAENAVGARVKALREAMDLSLRDLSERSGVSPTMLSQVERGSTSPTLAVAEKIAAGLDLSLSQLLRL” are within 0.2 log units of each other in “soluble fraction (log2)” value: 0.0794 for the first, -0.0179 for the second.

“HMSKQQFLDELAARLREEGAELLVAENLNFYRSYIEEEVAKGRSEEEVLAELGNPALIARSILDAAGF” and “HMSTYTETETAYLKAYSAAGVDGKISDSERGILNMTAEALGITVERTTELEAMFNLTVEEEA” are within 0.2 log units of each other in “soluble fraction (log2)” value: -0.153 for the first, -0.118 for the second.

First: HMNTSITVPSLKGLSQEAATLKMERLGLHVEVSDTGFVRSLAFGTVLQQSIAPGEKVKPGRLVYITINSD
Second: HMNDPIESLTPREREVLTLMAEGRTNAAIAAQLVVTEGAVEKHTQHIFAKLGLLPDSAVHRRVKAVLALLS
The “soluble fraction (log2)” value of the first is lower: -1.96 for the first, -1.75 for the second.

“HMSMHVHTPNPDFKPSNTNALQEGQLVEHPKFGFGKVQKIETEGLNKKASIQFEHFGEKTLLLSFAKLRII” and “HMITLPDFVGKDVETVKAWAKENGITLIVNKVEDSAKKDTVISQTPTTYDYSKIMKGSSFTVNVAKE” are within 0.2 log units of each other in “soluble fraction (log2)” value: 0.0178 for the first, -0.0122 for the second.

First: HMDSVTVPDISGYSPKAAEDSINNAGLKINEQGLSGSGDGQVVERTSPSAGSKVKKGDSVTVYYSKA
Second: HMAVKLELYRVFKEVAETGNISAAAKNLYISQSAVSQSIKQLETALQARLFARSPRGVTLTGEGQMLYQYV
The “soluble fraction (log2)” value of the first is higher: 0.00106 for the first, -1.44 for the second.

First: HMKNLTERQQQIIALISGNPLITRAEIASAIGFSVKTIERELSILSEIVSYVGSKKGGHWEIQT
Second: HMIENGILELKGKTGVAQTVLRPSGKVLIDDEIYDAVALTGYIEKADKVLVTKVEATQLYVEK
The “soluble fraction (log2)” value of the first is lower: -1.15 for the first, 0.0576 for the second.

Going from “HMDELPKDILRSFGLPDKPWAMELLRNLRRDGFALDGETARAYAEMAAMKPPRTDARQWMTAADVAYRRG” to “HMNEKGTNSTINEITRISKPGRRVYVGSAEIPKVKSGRGLVLISTSKGVMTGAEAAKAKLGGELLLKV”, the “soluble fraction (log2)” value rises from -0.151 to 0.0901.
